From paper PMC3936751 come the findings set out here.

Bounds are passed on as bounds.

Data set [1] relates to T1, hCdc45-His6 (Homo sapiens).
T1 sequence: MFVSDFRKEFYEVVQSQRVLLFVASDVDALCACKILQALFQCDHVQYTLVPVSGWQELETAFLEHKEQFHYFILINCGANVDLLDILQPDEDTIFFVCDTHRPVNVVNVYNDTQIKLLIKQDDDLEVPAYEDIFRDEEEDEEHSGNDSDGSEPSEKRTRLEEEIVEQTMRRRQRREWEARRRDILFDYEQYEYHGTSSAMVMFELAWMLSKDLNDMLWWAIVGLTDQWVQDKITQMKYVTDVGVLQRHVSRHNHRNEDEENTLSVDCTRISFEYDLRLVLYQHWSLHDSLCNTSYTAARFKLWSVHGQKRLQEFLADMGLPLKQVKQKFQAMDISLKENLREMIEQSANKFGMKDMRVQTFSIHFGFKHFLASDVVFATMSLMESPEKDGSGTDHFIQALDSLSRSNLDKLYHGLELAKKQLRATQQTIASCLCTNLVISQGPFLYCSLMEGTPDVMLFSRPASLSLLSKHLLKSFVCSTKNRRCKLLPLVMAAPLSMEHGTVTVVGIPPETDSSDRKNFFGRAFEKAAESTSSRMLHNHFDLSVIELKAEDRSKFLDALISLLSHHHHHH
The data set can be described thus: EMSA. Particulars: EMSA: 50 mM HEPES-KOH pH 7.5, 150 mM KCl, 0.5 mM DTT, 50 ug/ml BSA, 30 C 10 min, SPR: 20 mM HEPES-KOH pH 7.5, 150 mM KCl, 1 mM DTT, 3 mM EDTA, 0.005% P20 ….

The test system of data set [2] is T1, hCdc45-His6 (Homo sapiens). Briefly: SPR. The following applies: EMSA: 50 mM HEPES-KOH pH 7.5, 150 mM KCl, 0.5 mM DTT, 50 ug/ml BSA, 30 C 10 min, SPR: 20 mM HEPES-KOH pH 7.5, 150 mM KCl, 1 mM DTT, 3 mM EDTA, 0.005% P20 …; for binding signal: scale: fold weaker than Y/bubble; for Kd: Cdc45 immobilized by anti-His.

For 67-mer ssDNA, in data set [1] (2 nM DNA), the binding signal (fold less efficient than 113-mer) is 8.5. The substance 113-mer ssDNA had a binding signal (% bound at 5 uM Cdc45) in data set [1] of 85.

D-loop M5M6M2 displayed a binding signal in data set [2] of more than 10. The same measure, in the same setting: the value for R-loop was more than 10.

For “Y-shaped DNA M3S4 (17 bp, two 17-mer overhangs)”, the dissociation constant (Kd) in data set [2] was 7.7 nM.

“bubble M5M6 (22 bp, 20 nt bubble, 22 bp)” returned a dissociation constant Kd in data set [2] of 8 nM.
